Paper PMC12578283 (Protein & Cell, 2025)

B1: 4C7 (antibody, V domains shown)
VH: QVQLHQPGSVLVRPGTSVKLSCKASGYTFTSSWMNWAKQRPGQGLEWIGEIHPRSGNTNYNENFKGKATLTVDTSSSTAYVDLSSLASEDSAVYYCARSGGTYYYAMDSWGQGTSVTVSS
VL: DIQMTQTTSSLSASLGDRVTISCRASQDISNYLNWYQQKPDGTVKLLIYYTSRLHSGVPSRFSGSGSGTDFSLTISTLEQEDFATYFCQQANTSPYTFGGGTKLEIN
B2: 1G9 (antibody, V domains shown)
VH: QVQLQQPGPELVRPGASVKLSCKASGYTFTTYWMKWVRQRPGQGLEWIGTIDPSDNEIHYNQIFKDKATLTVDKSSSTAYMHLSSLTSEDAAVYYCARWDGTSYYAMDYWGQGTSVTVSS
VL: DVVMSQTPLSLPVSLGDQASISCRSSQSLVHSNGNTYLHWYLQKPGQSPKLLIYKVSNRFSGVPDRFSGSGSGTDFTLKISRVEAEDLGVYFCSQSTHVPPTFGGGTKLEIK

Target: p15 protein of African swine fever virus (African swine fever virus, UniProt Q65179)

Row | Binder | binding result
1 | B1 | binds
2 | B2 | binds
